Results on twelve molecules are retold here after publication PMC2850201 (Archives of biochemistry and biophysics, 2008).

“Also recorded” adds a separate entry of the source. Where two headings read alike, the source gives them in different places. Peptide text beside a SMILES is read from it.

The target of data set [1] is Phosphono-CheY (Escherichia coli, UniProt P0AE67, D57C). Format: binding, E. coli. As to conditions: phosphono-CheY versus CheY~P.
In the next data set the target is T87I Phosphono-CheY (Escherichia coli, UniProt P0AE67, D57C/T87I). Format: binding, E. coli. Conditions: ~2 μM protein, 100 mM HEPES, 10 mM MgCl2, 25 °C; no change in fluorescence intensity up to 500 μM peptide; uncertainty in intensity about 4 % due to noise.
The target in data set [2] is T87I/Y106W Phosphono-CheY (Escherichia coli, UniProt P0AE67, D57C/T87I/Y106W). In kind it is binding, E. coli. As to conditions: ~2 μM protein, 100 mM HEPES, 10 mM MgCl2, 25 °C; no change in fluorescence intensity up to 500 μM peptide; uncertainty in intensity about 4 % due to noise.
In data set [3] the target is FliM peptide (Escherichia coli) (UniProt P06974). As to conditions: cited from earlier work.
For data set [4], the target named is CheZ peptide (Escherichia coli) (UniProt P0A9H9). Description: fluorescence. Conditions: cited from earlier work.
In data set [5] the target is FliM peptide (Escherichia coli) (UniProt P06974). Conditions: cited from earlier work. This is another data set of the same source.
The target in data set [6] is T1, Phosphono-CheY (Escherichia coli, UniProt P0AE67 1-129, D57C, phosphonomethyl group on Cys57 (Pcy57)).
T1 sequence (looked up): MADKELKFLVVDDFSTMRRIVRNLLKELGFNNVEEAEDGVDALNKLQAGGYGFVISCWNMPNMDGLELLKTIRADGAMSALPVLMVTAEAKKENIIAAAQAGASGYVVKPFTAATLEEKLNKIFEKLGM
As to the kind of experiment: ITC.

The target in data set [7] is T1, Phosphono-CheY. Description: ITC. The source holds these as a separate data set. (In general: In ITC the heat of successive injections is recorded.)
Data set [8] concerns the target T1, Phosphono-CheY. Description: other fluorescence titration.
The next data set has as its system CheY~P. As to conditions: cited from earlier work.
Another data set has as its system CheZ. As to conditions: cited from earlier work.
A further data set deals with flagellar rotation. As to conditions: cited from earlier work.

Sequence of FliM peptide (Escherichia coli) (P06974 whole entry): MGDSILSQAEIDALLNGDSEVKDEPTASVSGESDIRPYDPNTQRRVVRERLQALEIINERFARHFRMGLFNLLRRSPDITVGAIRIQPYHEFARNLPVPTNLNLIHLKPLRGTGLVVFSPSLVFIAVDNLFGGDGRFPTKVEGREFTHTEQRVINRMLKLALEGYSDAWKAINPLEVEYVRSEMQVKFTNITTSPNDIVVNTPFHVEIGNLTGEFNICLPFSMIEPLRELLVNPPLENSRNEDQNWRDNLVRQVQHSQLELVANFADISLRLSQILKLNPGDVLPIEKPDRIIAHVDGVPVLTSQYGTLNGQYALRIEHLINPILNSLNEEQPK
Sequence of CheZ peptide (Escherichia coli) (P0A9H9 whole entry): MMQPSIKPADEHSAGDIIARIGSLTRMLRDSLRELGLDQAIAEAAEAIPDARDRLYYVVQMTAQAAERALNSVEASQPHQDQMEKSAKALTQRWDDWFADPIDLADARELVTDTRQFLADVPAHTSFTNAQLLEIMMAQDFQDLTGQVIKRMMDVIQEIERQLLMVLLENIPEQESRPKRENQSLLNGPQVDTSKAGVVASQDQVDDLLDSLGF
Sequence of T87I Phosphono-CheY (P0AE67 2-129 D57C/T87I limits assumed): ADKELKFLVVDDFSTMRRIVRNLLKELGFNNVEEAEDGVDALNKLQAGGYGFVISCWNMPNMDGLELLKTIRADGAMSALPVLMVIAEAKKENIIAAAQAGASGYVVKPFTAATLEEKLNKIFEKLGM
Sequence of T87I/Y106W Phosphono-CheY (P0AE67 2-129 D57C/T87I/Y106W limits assumed): as the sequence (P0AE67 2-129 D57C/T87I limits assumed) above, with Y105W counted along it

As to `CC[C@H](C)[C@H](NC(=O)[C@H](CCC(=O)O)NC(=O)[C@H](C)NC(=O)[C@H](CCC(N)=O)NC(=O)[C@H](CO)NC(=O)[C@H](CC(C)C)NC(=O)[C@@H](NC(=O)[C@H](CO)NC(=O)[C@H](CC(=O)O)NC(=O)CNC(=O)[C@@H](N)CCSC)[C@@H](C)CC)C(=O)N[C@@H](CC(=O)O)C(=O)N[C@@H](C)C(=O)N[C@@H](CC(C)C)C(=O)N[C@@H](CC(C)C)C(=O)N[C@@H](CC(N)=O)C(=O)O` [FliM peptide] (H-MGDSILSQAEIDALLN-OH), on Phosphono-CheY [1], the “affinity / Kd for phosphono-CheY compared with CheY~P” value is reported as “CheY~P binds the same FliM peptide with slightly higher affinity; also recorded: almost identical”. The “Kd (fluorescence)” value (at T87I Phosphono-CheY; in data set [2]) was “Not detectable ^b” in each case.

Broadly, the Kd is the free concentration of one partner at which half of the binding sites on the other are occupied at equilibrium, for simple one-to-one binding. Take CheY~P (from UniProt P0AE67): the Kd was 27 µM in [3] and 26 µM in data set [4].

On to CheY (from UniProt P0AE67), for which the results for the Kd in data set [5] and in [4] were 680 µM and 440 µM, respectively.

Regarding MGDSILSQAEIDALLN [FliM peptide], in the data set with Phosphono-CheY [6], the dH was -2.4 kcal/mol. Besides, the Kd is 21 µM with Phosphono-CheY [7] and 38 ± 1 µM with Phosphono-CheY [8].

For the molecule AGVVASQDQVDDLLDSLGF [CheZ peptide], the dH in the data set with Phosphono-CheY [6] is -4.8 kcal/mol.

B1: CheY~P: phosphorylated form of CheY (protein, UniProt P0AE67 2-129, looked up)
Chemotaxis protein CheY: ADKELKFLVVDDFSTMRRIVRNLLKELGFNNVEEAEDGVDALNKLQAGGYGFVISDWNMPNMDGLELLKTIRADGAMSALPVLMVTAEAKKENIIAAAQAGASGYVVKPFTAATLEEKLNKIFEKLGM
modifications: phosphorylated
For B1, the “half-life of CheY~P” value in the data set on CheY~P (in the absence of CheZ) is 15 to 20 s. For the same molecule, the “in vivo half-life of CheY~P” value with CheZ (in vivo, autophosphatase plus CheZ) is given as “less than a second”.

B2: T87C CheY~P: phosphorylated T87C CheY (protein, UniProt P0AE67 2-129, looked up, variant T87C)
Chemotaxis protein CheY: ADKELKFLVVDDFSTMRRIVRNLLKELGFNNVEEAEDGVDALNKLQAGGYGFVISDWNMPNMDGLELLKTIRADGAMSALPVLMVCAEAKKENIIAAAQAGASGYVVKPFTAATLEEKLNKIFEKLGM
modifications: phosphorylated
With B2, the “sensitivity to CheZ-promoted phosphatase activity” value with CheZ is “the same is true of T87C CheY~P”.

B3: T87I CheY~P: phosphorylated T87I CheY (protein, UniProt P0AE67 2-129, looked up, variant T87I)
Chemotaxis protein CheY: ADKELKFLVVDDFSTMRRIVRNLLKELGFNNVEEAEDGVDALNKLQAGGYGFVISDWNMPNMDGLELLKTIRADGAMSALPVLMVIAEAKKENIIAAAQAGASGYVVKPFTAATLEEKLNKIFEKLGM
modifications: phosphorylated
Take B3: the “sensitivity to CheZ” value in the data set with CheZ is given as “resistant to CheZ-promoted phosphatase activity”.

B4: T87I/Y106W CheY~P: phosphorylated T87I/Y106W CheY (protein, UniProt P0AE67 2-129, looked up, variant T87I Y106W)
Chemotaxis protein CheY: ADKELKFLVVDDFSTMRRIVRNLLKELGFNNVEEAEDGVDALNKLQAGGYGFVISDWNMPNMDGLELLKTIRADGAMSALPVLMVIAEAKKENIIAAAQAGASGWVVKPFTAATLEEKLNKIFEKLGM
modifications: phosphorylated
As for B4, the “sensitivity to CheZ” value with CheZ is listed as “resistant to CheZ-promoted phosphatase activity”.

B5: Y106W CheY: Substitution of Tyr106 in E. coli CheY with tryptophan (protein, UniProt P0AE67 2-129, looked up, variant Y106W)
Chemotaxis protein CheY: ADKELKFLVVDDFSTMRRIVRNLLKELGFNNVEEAEDGVDALNKLQAGGYGFVISDWNMPNMDGLELLKTIRADGAMSALPVLMVTAEAKKENIIAAAQAGASGWVVKPFTAATLEEKLNKIFEKLGM
As to B5, in the data set with flagellar rotation, the “flagellar rotation / swimming phenotype” value is reported as “hyperactive mutant that generates mainly clockwise rotational bias”.

B6: T87I/Y106W CheY: E. coli CheY double mutant T87I/Y106W (protein, UniProt P0AE67 2-129, looked up, variant T87I Y106W)
Chemotaxis protein CheY: ADKELKFLVVDDFSTMRRIVRNLLKELGFNNVEEAEDGVDALNKLQAGGYGFVISDWNMPNMDGLELLKTIRADGAMSALPVLMVIAEAKKENIIAAAQAGASGWVVKPFTAATLEEKLNKIFEKLGM
On to B6, for which the autodephosphorylation rate in the data set on CheY~P is reported as ~ 5 fold lower. Further, the “sensitivity to CheZ” value with CheZ is “completely resistant to CheZ activity”. Also, the “generation of clockwise rotation of the flagella” value with flagellar rotation is given as “cannot generate clockwise rotation of the flagella”.

B7: T87I CheY: E. coli CheY mutant T87I (protein, UniProt P0AE67 2-129, looked up, variant T87I)
Chemotaxis protein CheY: ADKELKFLVVDDFSTMRRIVRNLLKELGFNNVEEAEDGVDALNKLQAGGYGFVISDWNMPNMDGLELLKTIRADGAMSALPVLMVIAEAKKENIIAAAQAGASGYVVKPFTAATLEEKLNKIFEKLGM
Consider B7, for which the autodephosphorylation rate with CheY~P was ~ 5 fold lower. The “sensitivity to CheZ” value with CheZ is listed as “completely resistant to CheZ activity”. In addition, in the data set with flagellar rotation, the “generation of clockwise rotation of the flagella” value is on record as “cannot generate clockwise rotation of the flagella”.
